Legend:
[1] = biological target: antithrombin (UniProt P01008); assay: SPR
[2] = biological target: tissue factor pathway inhibitor alpha (human) (UniProt P10646); assay: SPR
Chain of UniProt P10646 (P10646 29-304): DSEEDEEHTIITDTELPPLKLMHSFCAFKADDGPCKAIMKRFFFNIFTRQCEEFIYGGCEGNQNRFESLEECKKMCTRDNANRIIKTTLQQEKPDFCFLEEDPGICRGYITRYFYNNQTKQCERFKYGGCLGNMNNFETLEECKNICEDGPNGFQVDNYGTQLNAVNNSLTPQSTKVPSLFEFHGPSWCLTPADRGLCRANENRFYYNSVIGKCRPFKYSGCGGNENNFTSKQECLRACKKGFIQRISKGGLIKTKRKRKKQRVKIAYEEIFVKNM

Chain of UniProt P01008 (P01008 33-464): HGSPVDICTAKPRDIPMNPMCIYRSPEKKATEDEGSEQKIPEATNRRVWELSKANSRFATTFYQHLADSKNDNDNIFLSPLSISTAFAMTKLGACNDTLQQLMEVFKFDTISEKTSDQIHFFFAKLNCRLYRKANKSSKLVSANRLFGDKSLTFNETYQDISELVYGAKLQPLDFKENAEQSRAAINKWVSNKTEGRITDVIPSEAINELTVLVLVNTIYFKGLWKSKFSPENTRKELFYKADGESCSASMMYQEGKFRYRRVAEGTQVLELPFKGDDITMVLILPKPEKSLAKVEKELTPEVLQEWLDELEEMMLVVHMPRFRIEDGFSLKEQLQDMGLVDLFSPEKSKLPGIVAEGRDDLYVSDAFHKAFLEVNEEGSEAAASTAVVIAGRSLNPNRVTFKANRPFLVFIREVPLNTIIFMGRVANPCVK

K96YS195A GD-FXa (from UniProt P00742 82-182; P00742 235-488) (domain or fragment)
Kd [1]: 460 nM

S195A Gla-domainless factor Xa (from UniProt P00742 82-182; P00742 235-488) (domain or fragment)
Kd [1]: 416 nM
Kd [2]: 2 nM

Reference: article PMC10568284
